In the supplement of paper PMC10724198:

Key:
[1] = test system: Saccharomyces cerevisiae; experiment: protein stability index of tFT-peptide fusion in wild type (PSI (0-1 scale)); higher = more stable (slower turnover); conditions: genetic background: wild type
[2] = test system: Saccharomyces cerevisiae; experiment: protein stability index of tFT-peptide fusion in deletion strain of DOA10 (PSI (0-1 scale)); higher = more stable (slower turnover)
Experimental: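 MPS profiling in S. cerevisiae of two library types built from selected 12-aa C-degron peptides (IN1, IN2, LN1, LN3, VN2, R1-R5, W1-W3, Atg1 and Rpa12 C-termini): saturation mutagenesis libraries and C-terminal +1 capping libraries (13 aa). Each peptide is fused to the C-terminus of a sfGFP-mCherry timer, after a GGGS linker. Cells are FACS-sorted into 8 mCherry/sfGFP bins and sequenced. PSI runs from 0 (unstable) to 1 (stable), measured once in wild type and in the das1Δ or doa10Δ background.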
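Wherever protein stability index of tFT-peptide fusion in deletion strain of DOA10 is given: PSI per variant is the weighted mean of its sequencing read distribution over the sorted stability bins, counting only variants with over 10 reads summed across bins.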
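Wherever protein stability index of tFT-peptide fusion in wild type is given: PSI derived as read-weighted mean over the 8 sorting bins, only variants exceeding 10 total reads kept, mCherry placed adjacent to the peptide and sfGFP distal.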

Row | Sequence | protein stability index [1] | protein stability index [2]
1 | AITLPMCPLLLC | 0.134 | 0.184
2 | RVTRLTAIYFRI | 0.172 | 0.351
3 | RSLRVLLPLYFRD | 0.346 | 0.647
4 | GLYMASVGCWFR | 0.322 | 0.684
5 | RSLRVNLPLYFR | 0.18 | 0.672
6 | CLVSLPILLFNR | 0.394 | 0.588
7 | RVTRLYAIYFRI | 0.134 | 0.294
8 | GLYMCSVGCWFRD | 0.431 | 0.649
9 | CLVSNPILLFFR | 0.368 | 0.661
10 | RSLRVLIPLYFR | 0.23 | 0.639
11 | GLYMCSVGCWFH | 0.401 | 0.497
12 | GLQMCSVGCWFR | 0.195 | 0.656
13 | RSLRVLLPLCFR | 0.405 | 0.687
14 | RSIRVLLPLYFR | 0.225 | 0.643
15 | RVNRLDAIYFRI | 0.48 | 0.659
16 | CLVSLPILLFFC | 0.0908 | 0.249
17 | AITLPMCPLLLRM | 0.172 | 0.573
18 | AITFPMCPLLLR | 0.3 | 0.676
19 | CLVSLPWLLFFR | 0.144 | 0.65

Row | Sequence | protein stability index [1] | protein stability index [2]
20 | GLTMCSVGCWFR | 0.219 | 0.674
21 | TSLRVLLPLYFR | 0.294 | 0.654
22 | ATTLPMCPLLLR | 0.383 | 0.673
23 | RSLRVELPLYFR | 0.17 | 0.685
24 | RHLRVLLPLYFR | 0.277 | 0.678
25 | RVDRLDAIYFRI | 0.559 | 0.639
26 | RSLRVLLPLFFR | 0.38 | 0.681
27 | ILYMCSVGCWFR | 0.289 | 0.486
28 | RSLRVLLPLYFA | 0.286 | 0.413
29 | AITLIMCPLLLR | 0.465 | 0.658
30 | CLVSLPILLFFK | 0.0574 | 0.577
31 | CLVSLLILLFFR | 0.319 | 0.408
32 | CLVSLPIELFFR | 0.596 | 0.656
33 | CLVVLPILLFFR | 0.0796 | 0.451
34 | CGVSLPILLFFR | 0.0581 | 0.622
35 | RVTRLDAILFRI | 0.453 | 0.705
36 | RSLRVLLPPYFR | 0.658 | 0.689
37 | RVTRLDAIYFRA | 0.608 | 0.697
38 | GLYMCMVGCWFR | 0.25 | 0.462

Row | Sequence | protein stability index [1] | protein stability index [2]
39 | RVTRLDAIYFRIA | 0.0756 | 0.136
40 | RSLRVLLPLMFR | 0.288 | 0.654
41 | GLYMCSVGCDFR | 0.641 | 0.663
42 | GLVMCSVGCWFR | 0.19 | 0.45
43 | GLYMCSVGRWFR | 0.643 | 0.668
44 | AITLPMCPLLLRQ | 0.34 | 0.634
45 | CLVQLPILLFFR | 0.0481 | 0.597
46 | RSFRVLLPLYFR | 0.162 | 0.612
47 | AITLRMCPLLLR | 0.389 | 0.643
48 | GLYMCSVGCWHR | 0.668 | 0.722
49 | RVTRLIAIYFRI | 0.168 | 0.348
50 | CLVSLNILLFFR | 0.17 | 0.323
51 | RVTRLDAKYFRI | 0.673 | 0.709
52 | CLVSLPIKLFFR | 0.123 | 0.652
53 | CLVMLPILLFFR | 0.0682 | 0.426
54 | RSLRVLLPLYFY | 0.263 | 0.435
55 | GLYMCSDGCWFR | 0.65 | 0.718
56 | IVTRLDAIYFRI | 0.24 | 0.612
